In the DeepSol protein solubility set:

Assay: soluble on expression in E. coli; label from the status in PepcDB or PDB records

MSLSEVDIAKADPAAASHPLLLNGDATVAQKNPGSVAENNLCSQYEEKVRPCIDLIDSLRALGVEQDLALPAIAVIGDQSSGKSSVLEALSGVALPRGSGIVTRCPLVLKLKKLVNEDKWRGKVSYQDYEIEISDASEVEKEINKAQNAIAGEGMGISHELITLEISSRDVPDLTLIDLPGITRVAVGNQPADIGYKIKTLIKKYIQRQETISLVVVPSNVDIATTEALSMAQEVDPEGDRTIGILTKPDLVDKGTEDKVVDVVRNLVFHLKKGYMIVKCRGQQEIQDQLSLSEALQREKIFFENHPYFRDLLEEGKATVPCLAEKLTSELITHICKSLPLLENQIKETHKRITEELQKYGVDIPEDENEKMFFLIDKINAFNQDITALMQGEETVGEEDIRLFTRLRHEFHKWSTIIENNFQEGHKILSRKIQKFENQYRGRELPGFVNYRTFETIVKQQIKALEEPAVDMLHTVTDMVRLAFTDVSIKNFEEFFNLHRTAKSKIEDIRAEQEREGEKLIRLHFQMEQIVYCQDQVYRGALQKVREKELEEEKKKKSWDFGAFQSSSATDSSMEEIFQHLMAYHQEASKRISSHIPLIIQFFMLQTYGQQLQKAMLQLLQDKDTYSWLLKERSDTSDKRKFLKERLARLTQARRRLAQFPGEGHHHHHH
soluble on expression in E. coli: soluble

MGFGIGDLFWIFLLLTSLQPLWQKRQIEYRRLRALQEFQQERKSRVILLIHRQESISFLGIPISRYITIEDSEQILRAIRLTPPDVPIDLILHTPGGLVLATEQIARALIRHQAKVTVFVPHYAMSGGTMLALASDEIIMDANAVLGPVDPQLGNYPAASILKVIEDKPISEIDDQTLIMADLSRKAIGQVQRFVRTLLKDSIPKQKVLPENIESIIEALTTGRVTHDYPITIEEATEMGLPVTVGLPHSIYDLMDLYPQAQGGRPSVQYIPMPYNDPRPIL
soluble on expression in E. coli: not soluble

MNDKEKIYNQLHHDAPIQIMPAPENLFVEYIEDGEVWYSPVVCIALSKAHNINFYDSDDVGCIDKAATCSIKKFNPETGEFEQFSKMAQKEITQ
soluble on expression in E. coli: not soluble

MDIYVCTVCGYEYDPAKGDPDSGIKPGTKFEDLPDDWACPVCGASKDAFEKQ
soluble on expression in E. coli: soluble

MNSEIELPVQKQLEAYNARDIDAFMAWWADDCQYYAFPATLLAGNAAEIRVRHIERFKEPDLYGELLTRVIVGNVVIDHETVTRNFPEGKGEVDVACIYEVENGRIAKAWFKIGEPRIVSQKS
soluble on expression in E. coli: soluble

MGSDKIHHHHHHMSSDSVIRVSNLGKRYEIYAQPKDRLKQMVMPRLKRMIGMHPPEYFREFWALRGVSFEVRRGETVAIIGQNGSGKSTLLQLVCGTLFPTNGDIQVKGRIAALLELGAGFNPEFTGEENIYLSGLLYGISEDELRNRFDSIVEFAEIGEFISQPVKTYSSGMYVRLAFAIAAHVDADMLVVDEALSVGDVRFTQKCMRFLREFQKTGTLLFVSHDVGAVTSLCSRAIWLNQGVLKMDGPAKETVEAYLAEQHALDRGQRGDVVQLAKAREKVAKQPAKAANPPVVDVVDQRWEALRANGSGTRIEVFEFMPDSSESEFGARGATIERVALRNEAGEDLPIVQGGELVDLYIESRSHQALAGLIFGFYLKDRLGQRLFGDNTFMTYADREVRSQAGDTHIARFRFRMPIMPVGAYSFDVAIATGNQHDHTQQHWIHDALSMRAVDSTMRHGLVGIPMLEIAISKEG
soluble on expression in E. coli: not soluble

LQIFSKEGLLIQEYGEKKRIPVTYDEIPPTLIHALIATEDQRFFEHPGVDVMGLGRAAVSMLKTGTKSQGGSTITMQVARNFFLSRKKTFLRKFNEIMLAIKIDRELSKEKILELYLNRVYLGNRAYGVGAAAMVYFGKSLKDLNLAELAMIAGLPQAPSTQNPIANP
soluble on expression in E. coli: not soluble

MSLTAYQASSQARVDAAMHTLFTAPSPELARLYEAMRYSVMNGGKRVRPLLAYAACEALGGKPEQANGAACAVELIHAYSLVHDDLPAMDDDDLRRGQPTTHKAFDEACAILAGDGLQSLAFSALLDPALSDASAEIRLRMVTTLAQAAGPAGMVGGQAIDLGSVGLKLDQQALEYMHRHKTGALIEASVILGALASGRAEKGELKALQTYAQAIGLAFQVQDDILDVESDTATLGKRQGADIARDKPTYPALLGLAAAKEYALELRDQALHALRPFDAAAEPLRELARYIVERRSEGHHHHHH
soluble on expression in E. coli: soluble

MLIRTEAPADILTVDRLVRSAFDTEAEAKLVMSLRENSHLTLALVACSDDGEVIGHCLFSPVTLNGDDLNWQGLAPLCVKKEHQKQGIAEALVKEGLEMLTELGYPVVVVLGDSNYYQRFGFESATNYDMHSKWEVPEGAFMIKACSSEFLEGRSGLIEYCPEFDVL
soluble on expression in E. coli: not soluble

MDYKVSRSGEIVEGEVEDSEKIDLPPGFRFHPTDEELITHYLRPKVVNSFFSAIAIGEVDLNKVEPWDLPWKAKLGEKEWYFFCVRDRKYPTGLRTNRATKAGYWKATGKDKEIFKGKSLVGMKKTLVFYKGRAPKGVKTNWVMHEYRLEGKFAIDNLSKTAKNECVISRVFHTRTDGTKEHMSVGLPPLMDSSPYLKSRGQDSLAGTTLGGLLSHVTYFSDQTTDDKSLVADFKTTMFGSGSTNFLPNIGSLLDFDPLFLQNNSSVLKMLLDNEETQFKKNLHNSGSSESELTASSWQGHNSYGSTGPVNLDCVWKF
soluble on expression in E. coli: soluble

MKHKTKILHLKNGYDLWGASFGDPNSPIKILALHGGPGDDADEFIVWADQLKKFARIDAEVFVYEQLGSFHSESPDFSKKENVDNYLNYNYYINEVEEVRQLFDLDNFYLAGHSWGGILAYEYMLRSEYRQHLKAGIVFSMNDNIDDYVKQINKELLDMFGEQEFKYMKRIETSGDFSQKHYHQNLIELYKEHLNRDPNYNPDDGMKMMAEDVYHHFQGNNEFVVTGEMKNWNVSSRLPEFDIPVLETVGEFDTMSVESAKRSARKLPRGRFALTENGGHSHAQDHPKEFFEHLGSFIKDVKAGNV
soluble on expression in E. coli: not soluble

MPASEQGFWRGMETCGWGGGSYILYAWARNAPNLVLPKDVAFSVGHEQDGIKYFVLQVHYAQPFAGEVHDFSGVTMHISQKKPMNLAAVMLFVSGTPIPPQLPAFQNNITCMFESSTPIHPFAFRTHTHAMGRLVSAFFKHDGHWTKIGKRNPQWPQLFEGIPSKLMIGSGDQMSASCRFDSMDKNRTVNMGAMGVDEMCNFYMMFHYDAKLDNPYPQGAICAKDYPSKMIDYPKDGFELLPSRPELEHHAHQSKVPFGIVQEAIHENLGGVKLGQVAGLAFNNEQQLLVFQRAGRVWDASTFDNYNILLDKKPIADPVILVISYSGNQTKLERKLGGGQFYLPHGIYVDKDGFVYTTDVGSHTVAKWKIEGNELKNIWTSGELLMPGSDQHHYCKPTGITRVEDQLYVTDGYCNSRVVVLDLNGKRIRQFGLPGEDAGQFNLPHDIVSDSAGRLLVTDRENGRVQHMTTQGHVIEEFKSTMFTNIYSAASHEDYVFMVPGRPIMGHETEGIAVFVGRSGTGLIEYAFGPTTKGKREQMGPQFGQPHCLRVCPDGGHIFVGDIAEGKARLWQFKVNLLEMCGSKYDMIKIKLMILP
soluble on expression in E. coli: not soluble

MDDLASQSFPEPERAIMKATYQVLCEYGYADLTIQQIADEYGKTTTAVHYHCDTKNKLLTAFLDYLLEELADSVHNIRTTNPENRLKFLLDELLVKSKNEPVLSIALLEMQSQTPYKEPFRERFKQMAVVNRQTELDFTVSETA
soluble on expression in E. coli: not soluble

MGSDKIHHHHHHMHFTPALKPGKLLKRYKRFLADVQLEDGSEITVHCPNTGSMRNCLFPGETLWFSTSSNTKRKYAHTWELMTTPTGALIGIHSGNANALVEEALNKGIITELTGYDSLRREVKYGDENSRIDILLECAQKTACYIEVKSCTLQENGQGYFPDAVSLRGQKHLRELMHMASLGHRAVLLFVVQHTDIMSVAPAAHIDPEYANLLKKSVLSGVEVLAYRCEISPSEIHLAQSCPVRV
soluble on expression in E. coli: not soluble

MKGLRLPESMREELAKPHGKLYRGKGEKLLLEVEEISEAKPFCTVGDLVTASAIKVGLTPDLAVADGKTLREENVEFEQEAFDEVIETTNPPAHISCELISALLKALKLCEDGKKVLVFVDGEEDLAVVPLVKLLPLGALILYGQPGEGVVALKVDEEKKVLILNLLNKMEIIGECDELKYLLGGD
soluble on expression in E. coli: not soluble

STKLTGYVWDGCAASGMKLSSVAIMARLADFSNDEGVCWPSIETIARQIGAGMSTVRTAIARLEAEGWLTRKARRQGDGSSPHCAVVDEYHEHATDALYTTMLTGMGARRQPLMWAITTAGYNIEGPCYDKRREVIEMLNGSVPNDELFGIIYTVDEGDDWTDPQVLEKANPNIGVSVYREFLLSQQQRAKNNARLANVFKTKHLNIWASARSAYFNLVSWQSCEDKSLTLEQFEGQPCILAFDLARKLDMNSMARLYTREIDGKTHYYSVAPRFWVPYDTVYSVEKNEDRRTAERFQKWVEMGVLTVTDGAEVDYRYILEEAKAANKISPVSESPIDPFGATGLSHDLADEDLNPVTIIQNYTNMSDPMKELEAAIESGRFHHDGNPIMTWCIGNVVGKTIPGNDDVVKPVKEQAENKIDGAVALIMAVGRAMLYEKEDTLSDHIESYGIRSL
soluble on expression in E. coli: soluble

MELPVVDLSSYLDFSGDELGSDLLESCRQVSRILKETGALIVKDPRCCAQDNDRFIDMMENYFEKPDDFKRLQQRPNLHYQVGATPEGVEVPRSLVDEEMQEKFNTMPNEYKPHIPKGPDHKWRYMWRVGPRPSNTRFKELNSEPVVPEGFPGWEEVMDSWGYKMISAVEVVAEMAAIGFGLPKDAFTSLMKQGPHLLAPTGSDLNCYNEEGTIFAGYHYDLNFLTIHGRSRFPGLYIWLRNGEKVAVKVPVGCLLIQAGKQIEWLTAGECIAGMHEVVVTSKTKDAITLAKEQNRSLWRVSSTLFAHIASDAELKPLGHFAESSLASKYPAIPAGEYVEQELSVINLKGNKGSS
soluble on expression in E. coli: soluble

MVPRTSSSNPTLRKTSPTMADIDITRSHSLGLDDGRAAVGRVADKLETELGVDAEWTGDTLQFSGQGADGHIEVEADAVHVAINLSAFLQPMRSRVQAEAEDYLDQSLQSQS
soluble on expression in E. coli: not soluble

MSLEYARRQALAREGLSAAGLDALIVTGPENIFYLCGQQTPGYYTFQALILPADGDPVFLIRQLEYFNFIANTFISDAVVYQDGEDPLALLVKLIESRGLASRRIAIDKRGWFLPIAVYEALQARLGTIGDGAGVIERFRAIKSPLEVEKLEKAAAYVDEGMRAGLAAVRVGATENDLVSAMLGSAIAAGSEYLGMEPLVSVGPRTGVPHGTWRRRAITDGDPAFLEMAACHDRYHAALMRSAWIGEPPREAVDMMKACQEALQVSLDTIRPGVACEVPHIACQKVIDRAGYTDNFKKRLGYSVGISFAPDWGEGAILSLNTGVKTELQPGMTFHLPPALRIYGRFTVGVSETIVVTETGYRALGSIDRNLLIVEGHHHHHH
soluble on expression in E. coli: soluble

MNTSLFKQERQKYIPKLPNILKKDFNNISLVYGENTEAIQDRQALKEFFKNTYGLPIISFTEGESSLSFSKALNIGIILSGGPAPGGHNVISGVFDAIKKFNPNSKLFGFKGGPLGLLENDKIELTESLINSYRNTGGFDIVSSGRTKIETEEHYNKALFVAKENNLNAIIIIGGDDSNTNAAILAEYFKKNGENIQVIGVPKTIDADLRNDHIEISFGFDSATKIYSELIGNLCRDAMSTKKYWHFVKLMGRSASHVALECALKTHPNICIVSEEVLAKKKTLSEIIDEMVSVILKRSLNGDNFGVVIVPEGLIEFIPEVKSLMLELCDIFDKNEGEFKGLNIEKMKEIFVAKLSDYMKGVYLSLPLFIQFELIKSILERDPHGNFNVSRVPTEKLFIEMIQSRLNDMKKRGEYKGSFTPVDHFFGYEGRSAFPSNFDSDYCYSLGYNAVVLILNGLTGYMSCIKNLNLKPTDWIAGGVPLTMLMNMEERYGEKKPVIKKALVDLEGRPFKEFVKNRDKWALNNLYLYPGPVQYFGSSEIVDEITETLKLELFK
soluble on expression in E. coli: soluble
